Source: IntAct's records for PubMed 11454741

B1: Stonin-2 (Homo sapiens), Q8WXE9 (parent)
chain: MTTLDHVIATHQSEWVSFNEEPPFPAHSQGGTEEHLPGLSSSPDQSESSSGENHVVDGGSQDHSHSEQDDSSEKMGLISEAASPPGSPEQPPPDLASAISNWVQFEDDTPWASTSPPHQETAETALPLTMPCWTCPSFDSLGRCPLTSESSWTTHSEDTSSPSFGCSYTDLQLINAEEQTSGQASGADSTDNSSSLQEDEEVEMEAISWQASSPAMNGHPAPPVTSARFPSWVTFDDNEVSCPLPPVTSPLKPNTPPSASVIPDVPYNSMGSFKKRDRPKSTLMNFSKVQKLDISSLNRTPSVTEASPWRATNPFLNETLQDVQPSPINPFSAFFEEQERRSQNSSISSTTGKSQRDSLIVIYQDAISFDDSSKTQSHSDAVEKLKQLQIDDPDHFGSATLPDDDPVAWIELDAHPPGSARSQPRDGWPMMLRIPEKKNIMSSRHWGPIFVKLTDTGYLQLYYEQGLEKPFREFKLEICHEISEPRLQNYDENGRIHSLRIDRVTYKEKKKYQPKPAVAHTAEREQVIKLGTTNYDDFLSFIHAVQDRLMDLPVLSMDLSTVGLNYLEEEITVDVRDEFSGIVSKGDNQILQHHVLTRIHILSFLSGLAECRLGLNDILVKGNEIVLRQDIMPTTTTKWIKLHECRFHGCVDEDVFHNSRVILFNPLDACRFELMRFRTVFAEKTLPFTLRTATSVNGAEVEVQSWLRMSTGFSANRDPLTQVPCENVMIRYPVPSEWVKNFRRESVLGEKSLKAKVNRGASFGSTSVSGSEPVMRVTLGTAKYEHAFNSIVWRINRLPDKNSASGHPHCFFCHLELGSDREVPSRFANHVNVEFSMPTTSASKASVRSISVEDKTDVRKWVNYSAHYSYQVALGSIWLMLPTPFVHPTTLPLLFLLAMLTMFAW
B2: Synaptotagmin-1 (Rattus norvegicus (Rat)), P21707 (parent)
chain: MVSASHPEALAAPVTTVATLVPHNATEPASPGEGKEDAFSKLKQKFMNELHKIPLPPWALIAIAIVAVLLVVTCCFCVCKKCLFKKKNKKKGKEKGGKNAINMKDVKDLGKTMKDQALKDDDAETGLTDGEEKEEPKEEEKLGKLQYSLDYDFQNNQLLVGIIQAAELPALDMGGTSDPYVKVFLLPDKKKKFETKVHRKTLNPVFNEQFTFKVPYSELGGKTLVMAVYDFDRFSKHDIIGEFKVPMNTVDFGHVTEEWRDLQSAEKEEQEKLGDICFSLRYVPTAGKLTVVILEAKNLKKMDVGGLSDPYVKIHLMQNGKRLKKKKTTIKKNTLNPYYNESFSFEVPFEQIQKVQVVVTVLDYDKIGKNDAIGKVFVGYNSTGAELRHWSDMLANPRRPIAQWHTLQVEEEVDAMLAVKK
partner: B1 chain

Variants of: B1
Details: with syt1_rat Syt1, P21707
W738A;K740A was tested, and the “effect of a mutation on the interaction” value was “decreasing interaction”.

Variants of: B2
Details: with ston2_human STON2, Q8WXE9
With MVSASHPEALAAPVTTVATLVPHNATEPASPGEGKEDAFSKLKQKFMNELHKIPLPPWALIAIAIVAVLLVVTCCFCVCKKCLFKKKNKKKGKEKGGKNAINMKDVKDLGKTMKDQALKDDDAETGLTDGEEKEEPKEEEKLGKLQYSLDYDFQNNQLLVGIIQAAELPALDMGGTSDPYVKVFLLPDAAKKFETKVHRKTLNPVFNEQFTFKVPYSELGGKTLVMAVYDFDRFSKHDIIGEFKVPMNTVDFGHVTEEWRDLQSAEKEEQEKLGDICFSLRYVPTAGKLTVVILEAKNLKKMDVGGLSDPYVKIHLMQNGKRLKKKKTTIKKNTLNPYYNESFSFEVPFEQIQKVQVVVTVLDYDKIGKNDAIGKVFVGYNSTGAELRHWSDMLANPRRPIAQWHTLQVEEEVDAMLAVKK [K189A;K190A] the “effect of a mutation on the interaction” value was “decreasing interaction”.
